This is an account of results in publication PMC9182532, “The RHIM of the Immune Adaptor Protein TRIF Forms Hybrid Amyloids with Other Necroptosis-Associated Proteins” (Molecules, 2022).

First the molecules themselves.
B2: YPet-TRIF_(601–712) (domain or fragment, human, UniProt Q8IUC6 601-712, looked up)
chain: APYGARMPFGGQVPLGAPPPFPTWPGCPQPPPLHAWQAGTPPPPSPQPAAFPQSLPFPQSPAFPTASPAPPQSPGLQPLIIHHAQMVQLGLNNHMWNQRGSQAPEDKTQEAE
notes: source: E. coli BL21(DE3), solubilised in 8 M urea, purified (Ni-NTA); not shown: YPet, N-terminal, kept

Data set [1] concerns the molecule itself. The data set can be described thus: thioflavin T fluorescence + Congo red absorbance; self-assembly started by dilution from urea into 25 mM NaH2PO4, 150 mM NaCl, pH 7.4, 40 µM ThT, 0.5 mM DTT, 37 °C, 2.5 µM (0.625–5 µM in the concentration series); Congo red on samples dialysed overnight at 0.3 mg/mL.
Data set [2] concerns the molecule itself. Kind of data set: SDS-agarose gel electrophoresis (SDS-AGE); 5 µM alone or equimolar mixtures, kept in 8 M urea (monomer control) or dialysed overnight against 100 mM NaH2PO4, 20 mM Tris, 0.5 mM DTT, pH 8.0, with or without 2% SDS for 10 min; 1% agarose gel with 0.1% SDS; YPet and mCherry fluorescence imaged and overlaid.
For the data set “YPet-TRIF_(601–712)”, the target named is B2. Described as above. The following applies: both partners purified.

B1: Ub-TRIF_(601–712) (domain or fragment, human, UniProt Q8IUC6 601-712, looked up)
chain: APYGARMPFGGQVPLGAPPPFPTWPGCPQPPPLHAWQAGTPPPPSPQPAAFPQSLPFPQSPAFPTASPAPPQSPGLQPLIIHHAQMVQLGLNNHMWNQRGSQAPEDKTQEAE
notes: Kept as monomer in 8 M urea; assembly is started by removing the denaturant; also called wildtype TRIF RHIM; source: E. coli BL21(DE3), solubilised in 8 M urea, purified (Ni-NTA); not shown: ubiquitin, N-terminal, kept
For the molecule B1, the binding result in data set [1] is listed as “binds”.

Turning to B2, in data set [2], the binding result was “binds”.

B3: mCherry-RIPK1_(497–583) (domain or fragment, human, UniProt Q13546 497-583, looked up)
chain: MPSLHNIPVPETNYLGNTPTMPFSSLPPTDESIKYTIYNSTGIQIGAYNYMEIGGTSSSLLDSTNTNFKEEPAAKYQAIFDNTTSLT
notes: also called RIPK1 RHIM construct; source: E. coli BL21(DE3), solubilised in 8 M urea, purified (Ni-NTA); not shown: mCherry, N-terminal, kept
For B3, the binding result (in the data set with YPet-TRIF_(601–712); in data set [2]) was “binds” each time.
